The target in this experiment is T1, canine IL-4 receptor alpha on DH82 cells (canine).
T1 construct: Endogenous receptor of the canine DH82 cell line in the STAT-6 assay; also called canine IL-4Rα; IL-4R alpha
T1 chain: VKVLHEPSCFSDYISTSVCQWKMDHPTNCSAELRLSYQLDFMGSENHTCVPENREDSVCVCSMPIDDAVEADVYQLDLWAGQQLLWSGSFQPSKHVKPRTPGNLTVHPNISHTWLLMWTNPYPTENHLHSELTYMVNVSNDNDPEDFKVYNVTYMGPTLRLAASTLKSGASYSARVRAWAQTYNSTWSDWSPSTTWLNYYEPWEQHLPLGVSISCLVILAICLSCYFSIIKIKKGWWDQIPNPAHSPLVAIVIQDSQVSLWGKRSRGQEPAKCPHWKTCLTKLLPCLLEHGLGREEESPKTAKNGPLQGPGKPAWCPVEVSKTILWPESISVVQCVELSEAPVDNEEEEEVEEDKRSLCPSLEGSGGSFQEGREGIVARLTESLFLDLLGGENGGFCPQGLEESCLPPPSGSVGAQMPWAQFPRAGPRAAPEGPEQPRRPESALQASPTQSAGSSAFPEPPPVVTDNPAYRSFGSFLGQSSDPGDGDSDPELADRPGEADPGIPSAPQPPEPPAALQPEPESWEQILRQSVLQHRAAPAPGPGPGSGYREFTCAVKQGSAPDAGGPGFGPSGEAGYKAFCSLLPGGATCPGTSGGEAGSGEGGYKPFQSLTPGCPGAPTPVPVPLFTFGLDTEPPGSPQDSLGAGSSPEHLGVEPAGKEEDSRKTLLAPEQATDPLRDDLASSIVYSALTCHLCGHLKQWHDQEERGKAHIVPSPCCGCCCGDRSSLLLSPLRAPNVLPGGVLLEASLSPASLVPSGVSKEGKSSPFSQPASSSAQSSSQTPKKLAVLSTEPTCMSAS
Kind of experiment: inferred by the filing from inhibition of STAT-6 phosphorylation in DH82 cells. How it is done:
Methods [0121] 1. Two tissue culture plates were seeded with 8×10⁴ DH82 cells per well (200 μL with the density of 4×10⁵ cells/mL) and incubated at 37° C. overnight. [0122] 2. The test antibodies were pre-diluted to 500 μg/mL and then 3-fold serially diluted in DH82 Cell Growth Media. The media was removed from the cell culture plates and 50 μL/well of the serially diluted test sample were transferred to each plate. [0123] 3. Canine IL-4 was diluted to 5 ng/mL in DH82 Cell Growth Media and 50 μL was added to each well of one plate. Canine IL-13 was diluted to 10 ng/mL in DH82 Cell Growth Media and 50 μL was added to each well of the second plate. The plates were incubated for 15 min at 37° C. [0124] 4. The media was removed from the plates and 100 μL per well of freshly prepared 1× lysis buffer from the AlphaLISA p-STAT-6 Assay Kit was added to the plate. The plate was agitated on a plate shaker with 350 rpm for 10 minutes at room temperature. [0125] 5. The Acceptor Mix was prepared from the AlphaLISA p-STAT6 Assay Kit and […] was added to 30 μL of the cell lysate in 96-well 1/2 Area Plates. The plates were sealed, agitated for 2 minutes at 350 rpm, and then incubated for 2 hours at room temperature. [0126] 6. […] The plates were read using the AlphaScreen settings on the Perkin Elmer EnVison.

B1: c146E2VL3-cCLk-s/c146E2VH3-cIgG-Bm (antibody, V domains shown)
VH: EVQLVQSGAEVKKPGASVKVSCKASGYTFARYWMHWMKQAPGAGLDWIGMIHPDSGNINYNERFKTKATLTVDKSTSTAYMELSSLRAGDIAVYYCARQLRNAMDYWGQGTLVTVSS
VL: DIVLTQTPLSLSVSPGETASIYCRASESVDSYGNSFLNWYQQKPGQPPKLLIYRASNLASEIPDRFSGSGSRTEFTLKISRVEADDAGVYYCQQNYENPRTFGQGTKLEIKR
notes: Caninized murine anti-canine IL-4R alpha antibody, canine IgG-Bm heavy chain and canine kappa light chain; also called c146E2-H3L3
On to B1, for which the binding result is “binds”.

(Values after US20230053131A1 (INTERVET, published 2023).)
